Measurements taken from patent US20220204624A1.

Assays:
Test in all cases: Octet (BLI), global fit, 1:1 binding model
[1] = target: cynomolgus CTLA-4 (cynomolgus) (UniProt G7PL88)
[2] = target: cynomolgus LAG-3 (cynomolgus)
[3] = target: human CTLA-4 (human) (UniProt P16410)
[4] = target: human LAG-3 (human) (UniProt P18627)
human LAG-3 (human), sequence (P18627 23-450 limits assumed): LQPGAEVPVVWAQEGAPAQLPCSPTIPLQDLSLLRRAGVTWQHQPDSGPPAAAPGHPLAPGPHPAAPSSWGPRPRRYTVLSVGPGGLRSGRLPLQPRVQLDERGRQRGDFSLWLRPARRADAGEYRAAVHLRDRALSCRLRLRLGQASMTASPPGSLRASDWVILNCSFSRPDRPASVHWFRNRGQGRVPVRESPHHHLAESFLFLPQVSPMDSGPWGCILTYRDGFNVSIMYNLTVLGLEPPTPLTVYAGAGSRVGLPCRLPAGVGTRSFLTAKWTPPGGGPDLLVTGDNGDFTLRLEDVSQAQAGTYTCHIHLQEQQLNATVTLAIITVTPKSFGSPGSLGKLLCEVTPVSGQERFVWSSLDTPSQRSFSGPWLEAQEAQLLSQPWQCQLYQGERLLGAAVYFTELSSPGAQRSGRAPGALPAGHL

cynomolgus CTLA-4 (cynomolgus), sequence (G7PL88 entry or part of it limits assumed, form in doubt): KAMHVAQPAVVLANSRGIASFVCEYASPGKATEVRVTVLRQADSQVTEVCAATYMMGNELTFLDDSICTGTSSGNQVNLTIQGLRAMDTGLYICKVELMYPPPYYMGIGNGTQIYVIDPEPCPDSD
human CTLA-4 (human), sequence (P16410 36-161 limits assumed): as the sequence (G7PL88 entry or part of it limits assumed, form in doubt) above, with N14S, M106L counted along it

Question: With XmAb22841 (bispecific antibody) as the substance, how does the Kd [1] read?
Answer: Its Kd is 17.6 nM.

Question: And the Kd [2]?
Answer: The Kd was 1.3 nM.

Question: And the Kd [3]?
Answer: Its Kd is 4.6 nM.

Question: What about the Kd [4] of the same substance?
Answer: The Kd was 1.4 nM.
